For the assay, the target named is recombinant human CD62L (L-selectin) full extracellular region, native 1 signal sequence construct (human). In words: SPR. On the technique in general: In SPR one partner is held on a chip, and binding of the other changes the refractive index at the surface.

pKd: −log10 of the molar value.

For orientation: pKd means the negative decadic logarithm of the Kd, by convention in mol/L. Turning to “mucin from porcine stomach type II (PSM-II) (natural protein)”, the pKd was 4.26.

(Values after paper PMC5599116.)
